Experiment: soluble fraction after stress (log2 fold change); higher = more stays soluble; pooled small domains, quantitative proteomics
Details: stress: pH 4
Method in brief: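 How much of each domain stays soluble after acid stress, expressed as a fold change, is used to gauge aggregation propensity. Pooled custom libraries of small domains underwent pH 4 stress before high-throughput quantitative proteomics. A higher log2 value means more of the domain stayed soluble.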

Sequence	soluble fraction (log2)
HMKQISNTDELESMAKNIIQENPDQVSKFKNGNEKLFGWFVGQMMKSTGGTANPKVVNEILKNLLN	0.162
HMTIPSYAEAVRYVRRQPRINTSTLADGLGIRWSLALDYLERMARSGVVGAIEDDGWWPVAR	0.329
HMNDADAHASVDAALKHLEALAETTPEVRAALELVRRGPDGRVTVDSFARVAEALREISIAVGAS	-0.632
HMGNKKLVLKLSKKLIKIPSFLNIYSVKLTKNGRELEINLDKSQNEAIDIINLIKKNNISFLEFDIKKR	0.015
HMTRDAQLAALERLMDDPSPVVRKAVLKGVQAAGTEGLLWLQQLSKNQTLGPYALALLTELR	-0.0392
HMSSRLEIEITSKIDDLSHTWRAVGAKQPKGNIKSSLLPSGVKVGETFRVEADFLLDGIEIVSVLPP	-1.52
HMTKDEIIIQSIIDAAKKLMQQYGLNKTTMEDIAKEAGKGKSTLYHYFKSKEEIFDQVINQEID	-1.06
HMESGFEAVREVARHGSFANAAKALGVSGPAVSRQVKSLEERLGLVFFHRTTRMVTLTEAGQQLVDTLD	-0.211
HMLMRKAEVGVESLNLRHGPGTQYKVLEILPGGKSLHYLAEPRRGWVRVTTEEGTTGWTFLKFLKPE	-0.0205
HMVPEMIRDVISKSIRDMGVLPDHMQINERIALIQSLKKQQILGIKGAVAETARQLGISVPTVYRYMKKG	-0.125
HMDQAEDVLSIPVDALMRGNQVYIKDDTVTEQQGPIPAGFKAVEVETGLISDSYVEIKSGLSEGDTVYVAE	-0.661
HMGTNTTGWIKIADDWKYIDSNGEYTVNDWRQSADGGWYYLGYNGNMLKNQTTPDGYYVDAEGLWDGMSPA	-2.31
HMTNQEFNEVFKLLLAAYPNTKDKESVATIYFLTIANELTKKEFAEAVVKILKTRKSGFIPQPAEILEVAK	-0.208
HMDARSTHIAAIHVLKSKLQLQDSDYRALLLTLTGQTSSKDLSEHQRRAVRNHMQQLAERMGVVQ	0.0263
HMQSNDTAEIEAVVKEIMAANERVVNDYRSGNTKVVSFFVGQVMKATKGKANPKVVNEVLAKLLK	0.169
HMRDANYFINPIHEWQKRYEALRASFVDRLPAQAVAQRFGYTITYIHLLRHQFKSGKIDFSEPVPEG	-1.91
HMKRITAVISQKKGRDYYYIIVSYYLSNGKRVQRWIKTEFPINGNNKRKLEQKRIEVLQEWQDKLV	-0.486
HMLDYITLSPQELGKLLSAGNGDAAMVYLYMKATGDVTLKQAETQLGMTNQNLAWAESLLKRLGLMD	-0.501
HMGAQRDFELQLIDVIRQNPGLTYKAYGEKLSVSQATVKRLVAKLKETGSIRREGSQRKGTWIITDD	0.252
HMFPQQGEIRQGVIASITPDQILVNVGTKSEGIISGKELEAISKSERDSLNVDQKIAVYILDPEDSNG	-0.391
HMIPTDPNGDLIKILYTSDQINELYARAKLNDVEDLFLDWTKNVLGESNFEETGPTKNEYLIPQ	-0.961
HMTVTTDITQYFLQENGLLNGPNARQLRQKIGETLNIGYTNGKQLLKRAQQFGLTRDQILTALKK	0.278
HMSSVEVWINGKSSGLTSDNRAQILQQLPAESIERIEVIDNPSAKFSAEGSAGIINIVLKKD	-0.177
HMKQISNTDELEAMIQKIIEDNSQQVEKFRSGNEKLFGWFVGQVMKNTQGAANPKVVNEILKKSLK	0.181
HMTKPLHELLSQREFQVFTQLAAGRSVGEIAQQLSLSSNTVSTYRARILEKTGTRNDVELALYAIRR	-0.231
HMSVFTPLTRSELETFLAPYELGRLLDFQGIAAGSENTNYFISLEKGEYVLTLVERGPVAEMPFFIELLD	-1.49
HMNPETLTNSSVIKMSKANLSDELITDMILNSPVKFDLSAGAIKTLESEGVTPAVLESMKNAASK	0.0677
HMKFTELEQLMLKREINTLADIARVLKTTPQAVSNWKARDQIPYHIVAKINASINKDSNDSSLSI	-0.782

Sequence	soluble fraction (log2)
HMNKFRVGDEVEIVKLDKTIQHFGGEEVLSPVGTKTYITYVDVTGKEIEIDKDIYSYHADDLTLV	-1.76
HMSQLLHELLAHVLKDRIISGEWPAGSRIMSEHALQERYGVSRGTVRRALAQLVQEGLLVQRKGKGTFVTR	0.35
HMTVPAGIVLSSIRQDGDVLHIRGTAQSTERLNFFRNSFSASWGSPAQNGKRKADPVTGLVDFTISLK	-1.16
HMTYNEYPEKEMQDLIDKSISQQEQAASQYGYSLGDYVTARYGFQSESDFREYVQGLAEDYMKEKI	-1.33
HMKKEQVIVPNVVGDTYDVALRKLTDAKLKVGETFPADREGHQGVIEKQSPAAGETVDEDTPVALFFKV	-0.384
HMQDLPPIHLSRGMTDYTLVRSRRRTLSMELKRDGTVVVHAPLRLGVEKIDAFVAAHEAWLARARTRQAER	0.196
HMPIDQAKRKKEIIQNFGIRKIYKFSEIFDLKFGRDNIIVTFLIILDMIKEGVVEINENKEEIEFEYK	-0.04
HMDELIKQVANYIINNRATINETAGAFGKSVSSIKKYINDADKLQRIDFELYQKVKEVQKIVELNGQI	-0.269
HMQYDSYTVEEPAKLLDWLLAHLRQSRTKIKATLQGHGIKVNGKTVTQFDYPLEPGMKIRVSLTK	-0.622
HMENNIRLSVPDTESGQRIDSYLAEQIPGLTRSAVQNLLAEQAVTIAGKAVKKNYKLLGGEDILVQLPEVR	≥ 0.43
HMNPGHAERGKEIVEVFLRNNGELSMREIAEKSNITITQARRRVNKLLDQGIVEATAPVQSRNRKYRIK	0.0708
HMDSPVLTAEIKALIDKELEQNAVKLATGLKKQRKRATDIHDALIRQGHEVSYRTVVRYIRNKTAQTS	≥ 0.43
HMKYTVKSPLPGVIMSVLVKVGDTVKASDTVISLEAMKMENAIHAGRDGKVTSIDVNVGDSVLEGHTLVTI	-1.04
HMMLVKKMLNGIMMKEITIKELADQYDVSTRTIQLKIKKLGYEWDSKESIYRYVGKESEPLDVDFSTLI	-1.47
HMPLYKYYTSYQIEPGDTLTSIAQKYTINSDVSVQDYIDEVKKNNNLVSDKINSGSYLVVSYYSNEY	-1.24
HMTPNATWQDDAQNLLRDLIQHQPVLVQISAAKRLRDQAEQISRITGGETVTREHVEAAGHALGMGVT	-0.0443
HMDNTSNVEKTLRFIRQRGKVSRKEVETLLGSSKFPAISALNELLAENKIVKTGSGPAVRYSVS	0.018
HMDKAGWLPARVRLADYPALKQLAWQVQGVDELTPREALGIYERNWRHLDEAALLPRERNLIDALRLAFG	-0.16
HMVAMYLRVGISNGRRYLSIVQGYRDQVTKKVRHNTVKSLGYLDDLEKHYPDPIAHFKAVVEEMNKKQALE	0.191
HMGLDMSLEREQHRALREASQWYARLADEQVDSDAERAWRHWVAADEANQRAWQYIEAVSQRFDG	-0.829
HMDDEDLAFLQREFVSYQQAMDYYGLGYKPVVRLSHISGSVYKIGKKVLIRRNIFEEYLRNHV	-0.666
HMIEEIPYSQFMSMLEEGKIDKAEIYQDSIIFSTKPDEQGKAGYYSIAYMKDNVLADRLYDAGVEFTPII	-1.4
HMHDAKAEIIRLSALLTEYQRSYYIDGHSQVSDLEYDRLFDRLVALETSHPELREADSPTQRV	-1.14
HMEKSLKELAQGVGQKVLTSGRPYHFDPMSAMERRVVHMTLMEMDGLRTESEGEGRFRHVVVFPA	-0.208
HMDNNFIQSLYPIAIGISKNQLDPWDLINGWVEYYLKNKEKYINHPNLKAVAVLKMKGLLIDHFRKS	-1.96
HMREYRITAEEGHPRIDVFLAGRPEIGLSRSRIQALIDEGQVTLNGAMPKARQAVNPGDVIVVRVPDPE	-0.336
HMGVKTDKYYYQMATETRVNKHYGLSNQYIATLISEYPRSPLIPNASILSKKNNADLALIDQSINQR	0.155

Reference: the domain aggregation screens of Martell et al. (2025)
